Experimental data taken from patent US20240052048A1.

What was measured:
[1] = target: cyno-BCMA-His (cyno (monkey)); assay: ELISA (OD450), GSK2857916 titrated up to 10 µg/mL on Monkey BCMA-His; EC50 table in the figure
[2] = target: cyno-BCMA-Fc (cyno (monkey)); assay: ELISA (OD450), GSK2857916 titrated up to 10 µg/mL on Monkey BCMA-Fc; EC50 table in the figure
[3] = target: human-BAFF-Fc (human), Q9Y275; assay: ELISA (OD450), plate coated with BAFF 1 µg/ml, human BCMA titrated up to 10 µg/mL; EC50 table in the figure; settings: remark: other sources report otherwise
[4] = target: human-BAFF-Fc (human), Q9Y275; assay: ELISA (OD450), plate coated with BAFF 8 µg/ml, human BCMA titrated up to 10 µg/mL; EC50 table in the figure; settings: remark: other sources report otherwise
[5] = target: human-BAFF-Fc (human), Q9Y275; assay: ELISA (OD450), plate coated with BAFF 4 µg/ml, human BCMA titrated up to 10 µg/mL; EC50 table in the figure; settings: remark: other sources report otherwise
[6] = target: human-BAFF-Fc (human), Q9Y275; assay: ELISA (OD450), plate coated with BAFF 2 µg/ml, human BCMA titrated up to 10 µg/mL; EC50 table in the figure; settings: remark: other sources report otherwise

Chain of human-BAFF-Fc (human), Q9Y275 (Q9Y275 134-285 limits assumed): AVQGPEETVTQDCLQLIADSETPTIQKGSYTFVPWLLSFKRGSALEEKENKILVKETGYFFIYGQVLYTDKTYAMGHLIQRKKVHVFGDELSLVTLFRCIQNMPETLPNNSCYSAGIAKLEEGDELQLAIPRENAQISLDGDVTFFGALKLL

B1: GSK2857916 (positive control antibody, not coupled to the toxin molecule) (antibody, V domains shown)
VH: QVQLVQSGAEVKKPGSSVKVSCKASGGTFSNYWMHWVRQAPGQGLEWMGATYRGHSDTYYNQKFKGRVTITADKSTSTAYMELSSLRSEDTAVYYCARGAIYDGYDVLDNWGQGTLVTVSS
VL: DIQMTQSPSSLSASVGDRVTITCSASQDISNYLNWYQQKPGKAPKLLIYYTSNLHSGVPSRFSGSGSGTDFTLTISSLQPEDFATYYCQQYRKLPWTFGQGTKLEIK
[1]
  EC50: 0.463 µg/mL
[2]
  EC50: 0.336 µg/mL

B2: human BCMA (recombinant antigen, tag not stated for the assay), Q02223 1-54 (receptor, UniProt Q02223 1-54, looked up)
chain: MLQMAGQCSQNEYFDSLLHACIPCQLRCSSNTPPLTCQRYCNASVTNSVKGTNA
[3]
  EC50: 0.586 µg/mL
[4]
  EC50: 0.697 µg/mL
[5]
  EC50: 0.559 µg/mL
[6]
  EC50: 0.553 µg/mL
